According to patent US12698483B2 (priority 2019, dated 2026):
Entries after “also recorded” stand apart in the source; their conditions may differ.

B1: TrGST-C02 (protein, listed as Triticum aestivum)
chain: MAGGDDLKLLGAWASPFVTRVKLALNFKGLSFEDVEEDLSNKSELLLSSNPVHKKVPVLVHNGKPICESVIIVQYIDEAFAGIGPALLPSDPYERAIARFWAAYVDDKLVAPWVQSLRAKTEEEKSEGLKQTFAAVETLEGALRECSKGEGYFGGETVGLVDISLGSLLSWLNATEVMSGTKIFDPVKTPLLAAWMERFSKLDAAKAALPEVDRVVEFAKKRQAQAAAAAAASETK
B2: TrGST-C12 (protein, listed as Triticum aestivum)
chain: MAGGDDLKLLGAWASPFVARVKLALSFKGLSFEDVEEDLSNKSELLLSSNPVHKKVPVLVHNGKPICESMIIVQYIDEAFLVGPSLLPSDPYKRAIARFWAAYIDDKLVTPWVQSLRAKTEEEKSEGVKQTFAAVETLEGALRECSKGEGYFGGETVGLVDISLGSLLSWLIATEVMSGTKIFDPVKTPLLAAWMGRFSELDAAKAALPEVDRVVEFAKKRQAQADAAAAASETK

Experiments:
Format in all cases: biochemical
[1] = Enzyme dependent formation of the GSH adduct with roridin A; conditions: FIG. 17; pCA02 empty vector and no protein as controls
[2] = Enzyme dependent formation of the GSH adduct with trichodermin; conditions: FIG. 14; pCA02 empty vector and no protein as controls
[3] = Enzymatic DON-GSH conjugation assay (LC-HRMS, Orbitrap); conditions: 100 ppm DON, 5 mM GSH, pH6, within 24 hours; for formation of the Michael adduct of DON (MH1): against nonenzymatic background; for formation of the epoxide adduct of DON (MH2, DON-13-GSH): result in words
[4] = Enzyme dependent formation of the GSH adduct with T-2 toxin; conditions: FIG. 11; pCA02 empty vector and no protein as controls

| Molecule | formation of the GSH adduct with roridin A (Roridin-GSH_MH) [1] | formation of the GSH adduct with trichodermin (Trichodermin-GSH_MH) [2] | formation of the Michael adduct of DON (MH1) [3] | formation of the epoxide adduct of DON (MH2, DON-13-GSH) [3] | formation of the GSH adduct with T-2 toxin (T-2-GSH_MH) [4] |
| --- | --- | --- | --- | --- | --- |
| B1 | Enzyme dependent formation of the GSH adduct | Enzyme dependent formation of the GSH adduct | clearly enhance Michael adduct formation; also recorded: clearly catalyze | clearly catalyze the formation of the epoxide-adduct; also recorded: catalyzed | Enzyme dependent formation of the GSH adduct |
| B2 | Enzyme dependent formation of the GSH adduct | Enzyme dependent formation of the GSH adduct | clearly enhance Michael adduct formation; also recorded: clearly catalyze | clearly catalyze the formation of the epoxide-adduct; also recorded: catalyzed | Enzyme dependent formation of the GSH adduct |
